Source: patent US20260055143A1, “HIGH AFFINITY VARIANTS OF SH2 DOMAINS” (Axoiya Inc., priority 2023, published 2026)
Blank lines part the entries; values can stand above or below the molecule they belong to.

Assays:
[1] = tested on: pMT peptide (EEPQ{pTyr}EEIPIY (SEQ ID NO: 181)); test: Competitive phage ELISA, Src variants; assay type: binding; details: IC50-based, fold over Src wt
Experimental: (§1) Competitive and non-competitive phage ELISAs were performed as previously described with minor modifications to the protocol. Peptide sequences used for these analyses can be found in Table 4.
(§2) Streptavidin (50 ng/well in TBS (50 mM Tris-HCl pH 8.0, 150 mM NaCl) was coated onto MAXISORP plates (Thermo Scientific). Phage binding was detected using HRP conjugated anti-M13 secondary antibody (1/2000 dilution, GE Healthcare) in TBS buffer containing 0.05% Tween-20 (TBT buffer). Phage binding was detected using the 3,3′,5,5′-tetramethylbenzidine (TMB) (Thermo Fisher Scientific) chromogenic substrate. Plates were read using a PowerWave XS microplate reader (BioTek).
(§3) Competitive phage-ELISAs were used to determine binding affinity of SH2 superbinders for their cognate target. ELISAs were performed as previously described, biotinylated and phosphorylated peptides were immobilized on plates at the concentration of 0.2 μM, and available binding sites on streptavidin were blocked by adding 25 μl/well of 50 μM D-biotin in TBS. […] Data were plotted using Prism 6 software (GraphPad Software Inc) and affinity of SH2 domains was inferred from determination of the half maximal inhibition concentration (IC50).

[2] = molecular target: Ezrin peptide (PPV{pTyr}EPVS (SEQ ID NO: 257)) (Homo sapiens, UniProt P15311); test: Competitive phage ELISA, Fes variants; assay type: binding; details: IC50-based, fold over Fes wt
Experimental: as §1, §2, §3

[3] = molecular target: T1, ezrin phosphopeptide (PPV{pTyr}EPV (SEQ ID NO: 258)) (Homo sapiens, UniProt P15311); test: Fluorescence polarization binding assay of purified Fes-SH2 variants with peptide pEZ
T1 construct: made in house; host or cells: peptide: chemical (Fmoc) synthesis; SH2 domains: Escherichia coli BL21(DE3)
Text: Peptide were synthesized using 9-fluorenylmethoxycarbonyl chemistry with the Prelude peptide synthesizer (Gyros Protein Technologies, Inc., Tucson, AZ) on Rink amide MBHA resin (Novabiochem, London, GB). Each peptide N-terminus was functionalized with biotin through a linker composed of two F-aminocaproic acids (Bachem). N-hydroxysuccinimide-fluorescein was used for N-terminal fluorescein labeling of the synthesized Ezrin pTyr-peptide used in fluorescence polarization tests. All peptides were purified using C-18 reverse phase HPLC (Waters) and their identity was confirmed by mass spectrometry on an Orbitrap Elite (ThermoFisher). Phosphopeptides that were used in the study but not synthesized in house were from GenScript.
Fluorescence polarization assays were performed as previously described. Briefly, binding measurements were performed in FP buffer (25 mM HEPES pH 7.5, 100 mM NaCl, 1 mM DTT, 0.01 mg/ml BSA, 0.03% BRIJ-35) by mixing in a 96-well plate 25 nM FITC-labeled Ezrin pTyr-peptide with serial dilutions of Fes-SH2 variants ranging from 1 mM to 22 nM. Samples were equilibrated at room temperature for 30 minutes before reading plates on an HTS Multi-Mode Microplate Reader (Synergy Neo) using an excitation filter of 485 nm and an emission filter of 530 nm. Dissociation constants were determined with Prism (GraphPad Software Inc) using a one-site total binding model.

[4] = tested on: cancer cell signaling; details: expression of the autonomous domain; cited from earlier work
[5] = molecular target: QGVI{pTyr}SDLNLP (Homo sapiens, UniProt P26715); test: Competitive ELISA, Ptn6_C variants; assay type: binding
Experimental: as §1, §2, §3
Peptides listed in Table 5 were used to assay for binding affinity of each corresponding SH2 domain.

B1: Src^sFes: SEQ ID 167: Src SH2 domain with sFes graft (protein)
chain: MKIEEHHHHHHSSGKLGLNDIFEAQKIEWHESSGEDLYFQSGTTMDDYKDDDDKGGSDGIQAEEWYFGKITRRESERLLLNAENPRGTFLVREGQSQPDYVLSVSDFDNAKGLNVKHYIIRKLDSGGFYITSRTQFNSLQQLVAYYSKHADGLCHRLTTVCPSR
- enhancement of affinity of the domain (times) [1]: 125

- enhancement of affinity of the domain (times) [2]: 650
B2: Fes^sSrc: SEQ ID 145: Fes SH2 domain with sSrc graft (protein)
chain: MKIEEHHHHHHSSGKLGLNDIFEAQKIEWHESSGEDLYFQSGTTMDDYKDDDDKGGSEVQKPLHEQLWYHGAIPRAEVAELLVHSGDFLVRESETVKGAYALSVLWDGLPRHFLIQSLDNLYRLEGEGFPSIPLLIDHLLSTQQPLTKKSGVVLHRAVPSR

- IC50 ([3]; fluorescence polarization against the ezrin phosphopeptide): 1300 nM
- Fold Change ([3]; fold enhancement in apparent affinity over wt Fes SH2): 1
B3: wt: unmodified Fes SH2 domain, SEQ ID 21 (protein, listed as Homo sapiens)
chain: WYHGAIPRAEVAELLVHSGDFLVRESQGKQEYVLSVLWDGLPRHFIIQSLDNLYRLEGEGFPSIPLLIDHLLSTQQPLTKKSGVVLHRAV

B4: SuperSrc-SH2: SEQ ID 136: high affinity variant of the Src SH2 domain, BC loop SETVKGA (protein)
chain: MKIEEHHHHHHSSGKLGLNDIFEAQKIEWHESSGEDLYFQSGTTMDDYKDDDDKGGSDSIQAEEWYFGKITRRESERLLLNAENPRGTFLVRESETVKGAYALSVSDFDNAKGLNVKHYLIRKLDSGGFYITSRTQFNSLQQLVAYYSKHADGLCHRLTTVCPSR
- effect on cancer cell signaling [4]: dominant negative effect

- change in affinity ([5]; with either the sSrc or sFes graft): no improvement in affinity
- change in binding ([5]; αA-2-Arg mutation alone): not sufficient to enhance the binding
B5: Ptn6_C^wt: wild-type PTN6_C SH2 domain, SEQ ID 59 (protein, listed as Homo sapiens)
chain: WYHGHMSGGQAETLLQAKGEPWTFLVRESLSQPGDFVLSVLSDQPKAGPGSPLRVTHIKVMCEGGRYTVGGLETFDSLTDLVEHFKKTGIEEASGAFVYLRQPY
